Results as given in US20240116985A1, “STAPLED PEPTIDES AND METHODS THEREOF” (priority 2020, published 2024).
Starred links: 1 amine or outer side, 2 acyl side, 3 side chain; linkers in the order of their positions; H or OH if unused. Positions of bridges follow the written chain, without caps; N, C: chain ends. Non-standard residues stand in square brackets, D forms with d. Primed or numbered codes have the meaning given here. *: point of attachment. B5(10) = 2-amino-2-(pent-4-en-1-yl)hept-6-enoic acid, bis(4-pentenyl)glycine, stitching residue bearing both staples, C=CCCCC(CCCC=C)(N[*:1])C(=O)[*:2]; PyrS2″ = (S)-3-amino-1-((pent-4-en-1-yloxy)carbonyl)pyrrolidine-3-carboxylic acid (stapling residue), C=CCCCOC(=O)N1CC[C@@](N[*:1])(C(=O)[*:2])C1; B5(16) = 2-amino-2-(pent-4-en-1-yl)hept-6-enoic acid = 2,2-bis(4-pentenyl)glycine (stitching residue), C=CCCCC(CCCC=C)(N[*:1])C(=O)[*:2]; B5(5) = 2,2-bis(4-pentenyl)glycine, 2-amino-2-(pent-4-en-1-yl)hept-6-enoic acid (stitching residue), C=CCCCC(CCCC=C)(N[*:1])C(=O)[*:2]; PyrS2 = (S)-3-amino-1-((pent-4-en-1-yloxy)carbonyl)pyrrolidine-3-carboxylic acid, C=CCCCOC(=O)N1CC[C@@](N[*:1])(C(=O)[*:2])C1; B5(12) = 2-amino-2-(pent-4-en-1-yl)hept-6-enoic acid (two olefin side chains), C=CCCCC(CCCC=C)(N[*:1])C(=O)[*:2]; B5(3) = 2,2-bis(4-pentenyl)glycine (stitching residue), C=CCCCC(CCCC=C)(N[*:1])C(=O)[*:2]; BzAm2Allyl = N-terminal 2-allylbenzoic acid (acyl cap), C=CCc1ccccc1C(=O)*; 4pentenyl = N-terminal pent-4-enoic acid (acyl cap), C=CCCC(=O)*; 5hexenyl = N-terminal hex-5-enoic acid (acyl cap), C=CCCCC(=O)*; 3butenyl = N-terminal but-3-enoic acid (acyl cap), C=CCC(=O)*; 5hexenyl″ = N-terminal hex-5-enoic acid cap, C=CCCCC(=O)*; Phe(3-COOH) = N[C@@H](Cc1cccc(C(=O)O)c1)C(=O)O; Phe(2-Cl) = N[C@@H](Cc1ccccc1Cl)C(=O)O; 1Nal = N[C@@H](Cc1cccc2ccccc12)C(=O)O; Bta = N[C@@H](Cc1csc2ccccc12)C(=O)O; Lys(iPr) = CC(C)NCCCC[C@H](N)C(=O)O; αAllylPro = C=CC[C@@]1(C(=O)O)CCCN1; tBuAla = CC(C)(C)C[C@H](N)C(=O)O; 3Thi = N[C@@H](Cc1ccsc1)C(=O)O; Cha = N[C@@H](CC1CCCCC1)C(=O)O; αMeP = C[C@@]1(C(=O)O)CCCN1; iPr = CC(C)*

Key:
[1] = molecular target: full-length beta-Catenin (Uniprot ID P35222) (Homo sapiens (Human)) (UniProt P35222); assay: fluorescence polarization competition; full-length beta-catenin + 5FAM-TCF4(10-53) probe
Target sequence in this assay (P35222 whole entry, one chain of several): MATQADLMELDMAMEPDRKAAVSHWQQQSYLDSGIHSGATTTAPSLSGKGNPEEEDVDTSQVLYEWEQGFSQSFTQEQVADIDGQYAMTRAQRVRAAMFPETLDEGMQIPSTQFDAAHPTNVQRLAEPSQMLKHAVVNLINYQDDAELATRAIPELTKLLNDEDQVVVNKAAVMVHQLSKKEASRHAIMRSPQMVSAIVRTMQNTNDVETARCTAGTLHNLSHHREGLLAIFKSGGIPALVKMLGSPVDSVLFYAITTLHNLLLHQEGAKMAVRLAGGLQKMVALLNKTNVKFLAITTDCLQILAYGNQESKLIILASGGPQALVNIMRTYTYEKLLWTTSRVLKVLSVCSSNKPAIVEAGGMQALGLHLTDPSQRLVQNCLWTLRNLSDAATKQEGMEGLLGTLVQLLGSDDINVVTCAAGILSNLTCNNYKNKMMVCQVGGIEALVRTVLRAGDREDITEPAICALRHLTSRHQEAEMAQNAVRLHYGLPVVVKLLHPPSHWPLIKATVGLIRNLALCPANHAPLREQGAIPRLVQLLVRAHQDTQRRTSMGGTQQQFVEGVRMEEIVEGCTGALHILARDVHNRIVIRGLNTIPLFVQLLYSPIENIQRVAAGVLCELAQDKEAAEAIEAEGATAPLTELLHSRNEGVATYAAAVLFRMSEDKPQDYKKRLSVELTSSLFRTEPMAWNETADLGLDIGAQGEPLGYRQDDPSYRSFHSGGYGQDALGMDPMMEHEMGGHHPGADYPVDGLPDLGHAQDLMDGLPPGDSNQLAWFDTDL

[2] = molecular target: Bcat-Halo (UniProt P35222); assay: NanoBRET Abs IC50, HEK293 cells, Bcat-Halo/TCF4-Luc; competitor TCF4-Luc
Bcat-Halo, sequence (P35222 whole entry): as the sequence (P35222 whole entry, one chain of several) above

[3] = molecular target: full-length beta-Catenin (Uniprot ID P35222) (Homo sapiens (Human)) (UniProt P35222); assay: fluorescence polarization competition against 5FAM-TCF4(10-53) on full-length beta-catenin
Target sequence in this assay (P35222 whole entry, one chain of several): as above

[4] = molecular target: full-length beta-Catenin (Uniprot ID P35222) (Homo sapiens (Human)) (UniProt P35222); assay: fluorescence polarization competition against 5FAM TCF4 10-53 probe
Target sequence in this assay (P35222 whole entry, one chain of several): as above

[5] = molecular target: full-length beta-Catenin (Uniprot ID P35222) (Homo sapiens (Human)) (UniProt P35222); assay: fluorescence polarization competition; 10 nM full-length beta-catenin + 10 nM 5FAM-TCF4 10-53 as competitor probe
Target sequence in this assay (P35222 2-781 limits assumed): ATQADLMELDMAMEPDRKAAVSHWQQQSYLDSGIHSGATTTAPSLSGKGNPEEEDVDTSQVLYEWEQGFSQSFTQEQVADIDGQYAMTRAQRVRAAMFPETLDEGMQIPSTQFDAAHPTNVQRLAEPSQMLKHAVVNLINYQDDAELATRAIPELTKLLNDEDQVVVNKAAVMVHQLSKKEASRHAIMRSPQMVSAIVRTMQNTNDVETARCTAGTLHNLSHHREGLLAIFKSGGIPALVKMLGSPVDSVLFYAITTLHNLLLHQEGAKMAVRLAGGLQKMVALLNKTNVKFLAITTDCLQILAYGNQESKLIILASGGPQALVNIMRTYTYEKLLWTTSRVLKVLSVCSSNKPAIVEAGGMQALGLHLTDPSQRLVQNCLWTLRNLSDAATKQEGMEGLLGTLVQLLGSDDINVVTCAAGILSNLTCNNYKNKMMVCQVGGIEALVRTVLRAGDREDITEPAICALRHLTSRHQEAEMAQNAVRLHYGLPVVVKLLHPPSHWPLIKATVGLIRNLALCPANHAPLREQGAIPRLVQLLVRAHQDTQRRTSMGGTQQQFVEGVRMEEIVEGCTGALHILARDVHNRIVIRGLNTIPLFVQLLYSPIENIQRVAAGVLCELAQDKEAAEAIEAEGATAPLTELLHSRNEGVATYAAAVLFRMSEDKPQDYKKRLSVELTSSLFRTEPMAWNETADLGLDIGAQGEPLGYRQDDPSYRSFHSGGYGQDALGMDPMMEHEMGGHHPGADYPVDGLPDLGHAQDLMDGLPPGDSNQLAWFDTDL

[6] = molecular target: full-length beta-Catenin (Uniprot ID P35222) (Homo sapiens (Human)) (UniProt P35222); assay: fluorescence polarization competition; full-length beta-catenin with 5FAM-TCF4(10-53) probe, peptide titrated
Target sequence in this assay (P35222 whole entry, one chain of several): as the sequence (P35222 whole entry, one chain of several) above

[7] = molecular target: full-length beta-Catenin (Uniprot ID P35222) (Homo sapiens (Human)) (UniProt P35222); assay: cell-based or functional assay
Target sequence in this assay (P35222 whole entry, one chain of several): as above

[8] = molecular target: beta-catenin (Homo sapiens (Human)) (UniProt P35222); assay: fluorescence polarization competition; full-length beta-catenin with 5FAM-TCF4(10-53) probe as competitor
beta-catenin (Homo sapiens (Human)), sequence (P35222 whole entry): as the sequence (P35222 whole entry, one chain of several) above

[9] = molecular target: full-length beta-Catenin (Uniprot ID P35222) (Homo sapiens (Human)) (UniProt P35222); assay: fluorescence polarization competition; full-length beta-catenin, competitor 5FAM-TCF4 10-53 probe
Target sequence in this assay (P35222 2-781 limits assumed): as the sequence (P35222 2-781 limits assumed) above

EC50 [1] [nM] | IC50 [2] [nM] | IC50 [3] [nM] | IC50 [4] [nM] | Binder | further results
9 | 27800 | 9 |  | Ac-[αAllylPro]D[tBuAla][B5(3)]DDK(iPr)AFL[PyrS2″][Phe(2-Cl)][Bta]Q-NH2 (staple 1-4, 4-11) [I-1275] | 
 |  |  | 8220 | 5hexenyl-XD[B5(3)]AD[Phe(3-COOH)]AAF[PyrS2]L[3Thi][Bta]Q-NH2 (staple 3-10; staple (positions not given here); not fully specified (residue 1, bridges); printed as 5hexenyl-MePro-Asp-B5-Ala-Asp-3COOHF-Ala-Ala-Phe-PyrS2-Leu-3Thi-BztA-Gln-NH2) [I-2602] | 
 |  |  | 592 | 4pentenyl-XD[B5(3)]ADDAAF[PyrS2]L[3Thi][Bta]Q-NH2 (staple 3-10; staple (positions not given here); not fully specified (residue 1, bridges); printed as 4pentenyl-MePro-Asp-B5-Ala-Asp-Asp-Ala-Ala-Phe-PyrS2-Leu-3Thi-BztA-Gln-NH2; also: -CH=CH- in each staple reduced to -CH2-CH2-) [I-2601] | 
 |  |  | 1350 | {5hexenyl″}-[αMeP]D[B5(3)]ADDAAF[PyrS2]L[3Thi][Bta]Q-NH2 (staple 3-10; staple (positions not given here); not fully specified (bridges); printed as 5hexenyl-MePro-Asp-B5-Ala-Asp-Asp-Ala-Ala-Phe-PyrS2-Leu-3Thi-BztA-Gln-NH2) [I-2598] | 
 |  |  | 608 | 4pentenyl-XD[B5(3)]AD[Phe(3-COOH)]AAF[PyrS2]L[3Thi][Bta]Q-NH2 (staple 3-10; staple (positions not given here); not fully specified (residue 1, bridges); printed as 4pentenyl-MePro-Asp-B5-Ala-Asp-3COOHF-Ala-Ala-Phe-PyrS2-Leu-3Thi-BztA-Gln-NH2; also: -CH=CH- in each staple reduced to -CH2-CH2-) [I-2605] | 
 |  |  |  | Ac-[αAllylPro]D[Cha][B5(16)]DDAAFT[PyrS2″][Phe(2-Cl)][Bta]Q-NH2 (staple 1-4, 4-11) [I-1042] | EC50 [5]: 5 nM; IC50 [6]: 5 nM
 |  |  | 767 | 4pentenyl-XD[B5(3)]AD[Phe(3-COOH)]AAF[PyrS2]L[3Thi][Bta]Q-NH2 (staple 3-10; staple (positions not given here); not fully specified (residue 1, bridges); printed as 4pentenyl-MePro-Asp-B5-Ala-Asp-3COOHF-Ala-Ala-Phe-PyrS2-Leu-3Thi-BztA-Gln-NH2) [I-2603] | 
17 | > 20000 | 17 |  | Ac-[αAllylPro]D[tBuAla][B5(3)]DDK(iPr)AFL[PyrS2″][Phe(2-Cl)][Bta]L-NH2 (staple 1-4, 4-11) [I-1277] | 
 |  |  | 734 | BzAm2Allyl-XD[B5(3)]ADDAAF[PyrS2]L[3Thi][Bta]Q-NH2 (staple 3-10; staple (positions not given here); not fully specified (residue 1, bridges); printed as BzAm2Allyl-MePro-Asp-B5-Ala-Asp-Asp-Ala-Ala-Phe-PyrS2-Leu-3Thi-BztA-Gln-NH2; also: -CH=CH- in each staple reduced to -CH2-CH2-) [I-2606] | DLD1 4% Abs IC50 [7]: > 20000 nM
 |  |  |  | Ac-[αAllylPro]DN[B5(12)]DDAAFL[PyrS2″][3Thi][Bta]L-NH2 (staple 1-4, 4-11) [I-1413] | EC50 [8]: 74 nM; IC50 [9]: 74 nM
12 | 22900 | 12 |  | Ac-[αAllylPro]D[tBuAla][B5(5)]DDAAFK(iPr)[PyrS2][Phe(2-Cl)][Bta]T-NH2 (staple 1-4, 4-11) [I-1279] | 
 |  |  | 923 | 5hexenyl-XD[B5(3)]ADDAAF[PyrS2]L[3Thi][Bta]Q-NH2 (staple 3-10; staple (positions not given here); not fully specified (residue 1, bridges); printed as 5hexenyl-MePro-Asp-B5-Ala-Asp-Asp-Ala-Ala-Phe-PyrS2-Leu-3Thi-BztA-Gln-NH2; also: -CH=CH- in each staple reduced to -CH2-CH2-) [I-2600] | 
 |  |  | 1120 | 5hexenyl-XD[B5(3)]AD[Phe(3-COOH)]AAF[PyrS2]L[3Thi][Bta]Q-NH2 (staple 3-10; staple (positions not given here); not fully specified (residue 1, bridges); printed as 5hexenyl-MePro-Asp-B5-Ala-Asp-3COOHF-Ala-Ala-Phe-PyrS2-Leu-3Thi-BztA-Gln-NH2; also: -CH=CH- in each staple reduced to -CH2-CH2-) [I-2604] | 
 |  |  | 251 | 3butenyl-XD[B5(3)]ADDAAF[PyrS2]L[3Thi][Bta]Q-NH2 (staple 3-10; staple (positions not given here); not fully specified (residue 1, bridges); printed as 3butenyl-MePro-Asp-B5-Ala-Asp-Asp-Ala-Ala-Phe-PyrS2-Leu-3Thi-BztA-Gln-NH2; also: -CH=CH- in each staple reduced to -CH2-CH2-) [I-2608] | 
10 | 22200 | 10 |  | Ac-[αAllylPro]D[tBuAla][B5(5)]DEAAFK(iPr)[PyrS2][Phe(2-Cl)][Bta]Q-NH2 (staple 1-4, 4-11) [I-1281] | 
10 | 18000 | 10 |  | Ac-[αAllylPro]D[tBuAla][B5(5)]DDAAFK(iPr)[PyrS2][Phe(2-Cl)][Bta]Q-NH2 (staple 1-4, 4-11) [I-1278] | 
 |  |  | 2650 | 5hexenyl-XD[B5(3)]ADDAAF[PyrS2]L[3Thi][Bta]Q-NH2 (staple 3-10; staple (positions not given here); not fully specified (residue 1, bridges); printed as 5hexenyl-MePro-Asp-B5-Ala-Asp-Asp-Ala-Ala-Phe-PyrS2-Leu-3Thi-BztA-Gln-NH2; also: -CH=CH- in each staple reduced to -CH2-CH2-) [I-2609] | 
10 | > 20000 | 10 |  | Ac-[αAllylPro]D[tBuAla][B5(3)]DDK(iPr)AFL[PyrS2″][Phe(2-Cl)][Bta]T-NH2 (staple 1-4, 4-11) [I-1276] | 
22 | 24700 | 22 |  | Ac-[αAllylPro]D[tBuAla][B5(5)]DDAAFK(iPr)[PyrS2][Phe(2-Cl)][Bta]L-NH2 (staple 1-4, 4-11) [I-1280] | 
 |  |  | 904 | BzAm2Allyl-XD[B5(3)]AD[Phe(3-COOH)]AAF[PyrS2]L[3Thi][Bta]Q-NH2 (staple 3-10; staple (positions not given here); not fully specified (residue 1, bridges); printed as BzAm2Allyl-MePro-Asp-B5-Ala-Asp-3COOHF-Ala-Ala-Phe-PyrS2-Leu-3Thi-BztA-Gln-NH2; also: -CH=CH- in each staple reduced to -CH2-CH2-) [I-2607] | DLD1 4% Abs IC50 [7]: > 20000 nM
34 | 43100 | 34 |  | Ac-[αAllylPro]D[tBuAla][B5(5)]DEAAFK(iPr)[PyrS2][Phe(2-Cl)][Bta]T-NH2 (staple 1-4, 4-11) [I-1282] | 
9 | > 20000 | 9 |  | Ac-[αAllylPro]D[tBuAla][B5(3)]DDK(iPr)AFT[PyrS2″][Phe(2-Cl)][Bta]T-NH2 (staple 1-4, 4-11) [I-1273] | 
173 | 17600 | 173 |  | Ac-[αAllylPro]D[tBuAla][B5(3)]DTAAFT[PyrS2″][1Nal][Bta]S-NH2 (staple 1-4, 4-11) [I-1269] | 
